# Test results as given in patent US8058507B2, “HOPM1 mediated disease resistance to Pseudomonas syringae in Arabidopsis” (priority 2007, dated 2011).
# Key:
# [1] = test system: Arabidopsis Y2H cDNA library; test: Yeast two-hybrid (Y2H) screening with HopM1 baits; type: binding; conditions: protein used as bait
# From the text: A LexA-based yeast two-hybrid system was used for screening an Arabidopsis Y2H cDNA library using full-length HopM1 and the dominant-negative domain of HopM1 (HopM11-300) as bait, in separate screenings. This system was based upon a pGilda Lex A expression vector (CLONTECHniques, OCTOBER 1999 p. 26-27, Clontech Laboratories Inc.; herein incorporated by reference in its entirety) for expressing HopM1 proteins in combination with a lacZ reporter gene on a separate plasmid that autonomously replicated in yeast (CLONTECHniques, OCTOBER 1999 p. 26-27, Clontech Laboratories Inc.; herein incorporated by reference in its entirety), see below for addition information (see, MATCHMAKER LexA Two-Hybrid System Catalog #K1609-1 and MATCHMAKER LexA Libraries User Manual (PT3040-1) Version It PR67300 and (Yeast Protocols Handbook, Protocol # PT3024-1 Version # PR13103, published 14 Mar. 2001; herein incorporated by reference in its entirety).
# hopM1 DNA fragments were amplified by PCR using the primers listed below and standard PCR procedures then fragments were isolated and cloned into a bait vector pGilda Lex A (resistance to ampicillin (100 μg/ml) to E. coli hosts; Protocol # PT3147-5; Version # PR81829; Clontech Laboratories, Inc.; herein incorporated by reference in its entirety). […]
# AtMIN7 = test: Detection of polyubiquitinated AtMIN7 in planta; type: cell-based, Arabidopsis thaliana; conditions: MG132-treated N. benthamiana leaves
# From the text: Left: AtMIN7:HA and 6×His:HopM1-300, 6×His:HopM301-712 or 6×His:HopM1-712 were transiently co-expressed in MG132-treated N. benthamiana leaves. Ubiquitinated proteins were detected by western blot (WB) with a polyclonal ubiquitin (Ub) antibody (Sigma Co.). Right: AtMIN7:HA and 6×His:HopM1-712 were transiently co-expressed in 1% DMSO (−)- or MG132-treated N. benthamiana leaves. AtMIN7 was immunoprecipitated (IP) using a polyclonal AtMIN7 antibody. Ubiquitinated AtMIN7 protein was detected by western blot (WB) with a polyclonal ubiquitin (Ub) antibody (Sigma Co.). See Materials and Methods for transient expression and immunoprecipitation of AtMIN7 and HopM1 in N. benthamiana leaves.
# AtMIN10-HA = test: Immunoblot of AtMIN10-HA in transgenic plants infiltrated with ΔCEL mutant bacteria (pORF43); type: in vivo, Arabidopsis; conditions: HopM1 delivered by 1×10^8 CFU/ml ΔCEL mutant bacteria (pORF43)
# Procedure: In brief: leaf disc fractions were homogenized in 1×SDS-polyacrylamide gel electrophoresis (PAGE) sample buffer, boiled for 5 min, and centrifuged for 2 minutes. Proteins in the supernatant were separated on SDS-PAGE gels and transferred to Immobilon-P membrane for immunoblotting procedures (Millipore Corp., Bedford, Mass.).
# Furthermore AtMIN10-HA stably expressed in transgenic plants was also destabilized by HopM1. Leaves of AtMIN10-HA transgenic plants were infiltrated with water or 1×10^8 CFU/ml ΔCEL mutant bacteria or ΔCEL mutant bacteria (pORF43). AtMIN10-HA was detected using the HA epitope antibody.
molecule,measurement,setting,value
"full-length HopM1: Pst DC3000 type III effector, 712-aa virulence protein (SEQ ID NO:34) (protein, 6xHis tag; Pseudomonas syringae pv. tomato str. DC3000) MISSRIGGAGGVELSRVNQQHDTVPAQTAHPNAVTAGMNPPLTPDQSGSHATESSSAGAARLNVAARHTQLLQAFKAEHGTAPVSGAPMISSRAALLIGSLLQAEPLPFEVMAEKLSPERYQLKQFQGSDLQQRLEKFAQPGQIPDKAEVGQLIKGFAQSVADQLEHFQLMHDASPATVGQHAKADKATLAVSQTALGEYAGRASKAIGEGLSNSIASLDEHISALDLTLQDAEQGNKESLHADRQALVDAKTTLVGLHADFVKSPEAKRLASVAAHTQLDNVVSDLVTARNTVGGWKGAGPIVAAAVPQFLSSMTHLGYVRLSTSDKLRDTIPETSSDANMLKASIIGMVAGIAHETVNSVVKPMFQAALQKTGLNERLNMVPMKAVDTNTVIPDPFELKSEHGELVKKTPEEVAQDKAFVKSERALLNQKKVQGSSTHPVGELMAYSAFGGSQAVRQMLNDVHQINGQTLSARALASGFGGAVSASSQTLLQLKSNYVDPQGRKIPVFTPDRAESDLKKDLLKGMDLREPSVRTTFYSKALSGIQSSALTSALPPVTAQAEGASGTLSAGAILRNMALAATGSVSYLSTLYTNQSVTAEAKALKAAGMGGATPMLDRTETALNNIRHPNRESLPHTFQKSTLSGIPRVAENAYHMGRGALQLPTQMAVDTVRVVDEGVLNAVASAREALKQPTKDDDALRALEEGLLDPR",interactors recovered in Y2H screen,[1],failed to recover target interactor host proteins
same,polyubiquitination of AtMIN7,AtMIN7,enhanced
same,stability of AtMIN10-HA,AtMIN10-HA,destabilized
